B1: modified TCR ba2 (TCR)
TCR alpha: NIQNPDPAVYQLRDSKSSDKSVCLFTDFDSQTNVSQSKDSDVYITDKTVLDMRSMDFKSNSAVAWSNKSDFACANAFNNSIIPEDTFFPSPESSCDVKLVEKSFETDTNLNFQNLSVIGFRILLLKVAGFNLLMTLRLWSS
TCR beta: EDLKNVFPPEVAVFEPSEAEISHTQKATLVCLATGFYPDHVELSWWVNGKEVHSGVSTDPQPLKEQPALNDSRYCLSSRLRVSATFWQNPRNHFRCQVQFYGLSENDEWTQDRAKPVTQIVSAEAWGRADCGFTSESYQQGVLSATILYEILLGKATLYAVLVSALVLMAMVKRKDSRG
B2: modified TCR ba4 (TCR)
TCR alpha: B1 TCR alpha
TCR beta: VSTDPQPLKEQPALNDSRYCLSSRLRVSATFWQNPRNHFRCQVQFYGLSENDEWTQDRAKPVTQIVSAEAWGRADCGFTSESYQQGVLSATILYEILLGKATLYAVLVSALVLMAMVKRKDSRG
B3: modified TCR ba7 (TCR)
TCR alpha: SVCLFTDFDSQTNVSQSKDSDVYITDKTVLDMRSMDFKSNSAVAWSNKSDFACANAFNNSIIPEDTFFPSPESSCDVKLVEKSFETDTNLNFQNLSVIGFRILLLKVAGFNLLMTLRLWSS
TCR beta: B1 TCR beta
B4: modified TCR ba5 (TCR)
TCR alpha: B1 TCR alpha
TCR beta: FRCQVQFYGLSENDEWTQDRAKPVTQIVSAEAWGRADCGFTSESYQQGVLSATILYEILLGKATLYAVLVSALVLMAMVKRKDSRG
B5: modified TCR ba3 (TCR)
TCR alpha: B1 TCR alpha
TCR beta: ATLVCLATGFYPDHVELSWWVNGKEVHSGVSTDPQPLKEQPALNDSRYCLSSRLRVSATFWQNPRNHFRCQVQFYGLSENDEWTQDRAKPVTQIVSAEAWGRADCGFTSESYQQGVLSATILYEILLGKATLYAVLVSALVLMAMVKRKDSRG
B6: modified TCR ba8 (TCR)
TCR alpha: DVYITDKTVLDMRSMDFKSNSAVAWSNKSDFACANAFNNSIIPEDTFFPSPESSCDVKLVEKSFETDTNLNFQNLSVIGFRILLLKVAGFNLLMTLRLWSS
TCR beta: B1 TCR beta
B7: modified TCR ba6 (TCR)
TCR alpha: B1 TCR alpha
TCR beta: AKPVTQIVSAEAWGRADCGFTSESYQQGVLSATILYEILLGKATLYAVLVSALVLMAMVKRKDSRG
B8: modified TCR ba9 (TCR)
TCR alpha: KSNSAVAWSNKSDFACANAFNNSIIPEDTFFPSPESSCDVKLVEKSFETDTNLNFQNLSVIGFRILLLKVAGFNLLMTLRLWSS
TCR beta: B1 TCR beta
B9: full-length TCR (ba1) (TCR)
chain: MLSLLLLLLGLGSVFSAVISQKPSRDICQRGTSLTIQCQVDSQVTMMFWYRQQPGQSLTLIATANQGSEATYESGFVIDKFPISRPNLTFSTLTVSNMSPEDSSIYLCSVDGQGNTGELFFGEGSRLTVLEDLKNVFPPEVAVFEPSEAEISHTQKATLVCLATGFYPDHVELSWWVNGKEVHSGVSTDPQPLKEQPALNDSRYCLSSRLRVSATFWQNPRNHFRCQVQFYGLSENDEWTQDRAKPVTQIVSAEAWGRADCGFTSESYQQGVLSATILYEILLGKATLYAVLVSALVLMAMVKRKDSRGSGSGEGRGSLLTCGDVEENPGPMACPGFLWALVISTCLEFSMAQTVTQSQPEMSVQEAETVTLSCTYDTSESDYYLFWYKQPPSRQMILVIRQEAYKQQNATENRFSVNFQKAAKSFSLKISDSQLGDAAMYFCAYWSNNNARLMFGDGTQLVVKPNIQNPDPAVYQLRDSKSSDKSVCLFTDFDSQTNVSQSKDSDVYITDKTVLDMRSMDFKSNSAVAWSNKSDFACANAFNNSIIPEDTFFPSPESSCDVKLVEKSFETDTNLNFQNLSVIGFRILLLKVAGFNLLMTLRLWSS

Molecular target: CD3E (human, UniProt P07766 23-207)
Sequence (P07766 23-207): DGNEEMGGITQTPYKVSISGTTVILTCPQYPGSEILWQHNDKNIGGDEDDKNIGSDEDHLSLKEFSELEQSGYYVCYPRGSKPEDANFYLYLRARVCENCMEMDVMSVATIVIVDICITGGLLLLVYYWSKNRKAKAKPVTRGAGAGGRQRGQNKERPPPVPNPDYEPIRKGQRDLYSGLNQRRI
Experiment: cell-based or functional assay

CD3E-positive proportion [%] (Avg, n = 2), CD3-stably expressing 293T cells | Binder
84.5% | B1
10.2% | B2
88.6% | B3
48.4% | B4
82.3% | B5
90.3% | B6
47.6% | B7
90.7% | B8
88.7% | B9

Molecular target: CD3 subunits (CD3E, CD3G, CD3D, CD3Z) (human, UniProt P07766 23-207; P09693 23-182; P04234 22-171; P20963 22-164)
Sequence (P07766 23-207, chain 1 of 4): as the sequence (P07766 23-207) above
Sequence (P09693 23-182, chain 2 of 4): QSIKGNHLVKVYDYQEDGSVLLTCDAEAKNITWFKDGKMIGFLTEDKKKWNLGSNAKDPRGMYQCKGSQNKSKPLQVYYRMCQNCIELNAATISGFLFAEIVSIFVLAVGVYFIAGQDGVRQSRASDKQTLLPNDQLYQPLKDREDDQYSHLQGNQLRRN
Sequence (P04234 22-171, chain 3 of 4): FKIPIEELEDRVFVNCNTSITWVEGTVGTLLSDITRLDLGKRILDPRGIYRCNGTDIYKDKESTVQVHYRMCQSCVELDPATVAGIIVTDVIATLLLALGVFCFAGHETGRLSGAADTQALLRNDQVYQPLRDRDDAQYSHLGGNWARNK
Sequence (P20963 22-164, chain 4 of 4): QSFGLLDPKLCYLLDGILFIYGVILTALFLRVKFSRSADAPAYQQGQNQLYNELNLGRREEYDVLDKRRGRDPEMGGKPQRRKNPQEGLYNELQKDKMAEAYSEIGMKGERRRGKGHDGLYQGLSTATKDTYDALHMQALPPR
Experiment: cell-based or functional assay

expression of CD3 (CD3-positive proportion), cells differentiated from iPS-derived HPCs (FF-WJs524), Day 21 | Binder
50.4% | B1
38.3% | B2
99.5% | B8
99.8% | B9
